US20230303994
Residue numbers refer to the chain shown, from its start. Names may count otherwise.

Chain of insulin glargine, P01308 (P01308 whole entry, looked up): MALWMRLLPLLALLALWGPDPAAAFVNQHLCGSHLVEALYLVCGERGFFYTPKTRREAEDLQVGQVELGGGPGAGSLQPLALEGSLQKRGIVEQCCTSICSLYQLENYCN

B1: porcine trypsin variant S172A (SEQ ID NO: 2) (protein)
chain: IVGGYTCAANSIPYQVSLNSGSHFCGGSLINSQWVVSAAHCYKSRIQVRLGEHNIDVLEGNEQFINAAKIITHPNFNGNTLDNDIMLIKLSSPATLNSRVATVSLPRSCAAAGTECLISGWGNTKSSGSSYPSLLQCLKAPVLSDSSCKSSYPGQITGNMICVGFLEGGKDACQGDSGGPVVCNGQLQGIVSWGYGCAQKNKPGVYTKVCNYVNWIQQTIAAN
Activity PPI cleavage (pre-pro-human insulin): yes | Selectivity (pre-pro-human insulin): 62.1% | exopeptidase activity (insulin glargine, P01308): the concentration of insulin glargine is decreased over time | Purity Insulin Glargine (pre-pro-insulin glargine): 53.6 area % | Yield (pre-pro-insulin glargine): 65% | desArg (pre-pro-insulin glargine): 19.1 area % | desThr (pre-pro-insulin glargine): 5.2 area %

B2: trypsin variant SEQ ID NO: 4 (protein)
chain: B1 chain with F24R, R99A, W193S
Activity PPI cleavage (pre-pro-human insulin): yes | Selectivity (pre-pro-human insulin): >90% | Purity Insulin Glargine (pre-pro-insulin glargine): 86.4 area % | Yield (pre-pro-insulin glargine): > 90% | desArg (pre-pro-insulin glargine): < 0.5 area % | desThr (pre-pro-insulin glargine): 2.9 area %

B3: trypsin variant SEQ ID NO: 115 (protein)
chain: B1 chain with F24R, S44P, D56H, R99N, R107T, K125S, Y131M, W193S
Activity PPI cleavage (pre-pro-human insulin): yes | Selectivity (pre-pro-human insulin): >90% | Purity Insulin Glargine (pre-pro-insulin glargine): 83.5 area % | Yield (pre-pro-insulin glargine): > 90% | desArg (pre-pro-insulin glargine): 0.8 area % | desThr (pre-pro-insulin glargine): 0.6 area %

B4: trypsin variant SEQ ID NO: 116 (protein)
chain: B1 chain with F24R, S44P, D56H, R99N, R107T, K125S, Y131M, K170A, W193S
Activity PPI cleavage (pre-pro-human insulin): yes | Selectivity (pre-pro-human insulin): >90% | Purity Insulin Glargine (pre-pro-insulin glargine): 82.7 area % | Yield (pre-pro-insulin glargine): > 90% | desArg (pre-pro-insulin glargine): 0.5 area % | desThr (pre-pro-insulin glargine): 0.6 area %

B5: trypsin variant SEQ ID NO: 24 (protein)
chain: B1 chain with F24R, K170Y, W193S
Activity PPI cleavage (pre-pro-human insulin): yes | Selectivity (pre-pro-human insulin): >90% | Purity Insulin Glargine (pre-pro-insulin glargine): 82.3 area % | Yield (pre-pro-insulin glargine): > 80% | desArg (pre-pro-insulin glargine): < 0.5 area % | desThr (pre-pro-insulin glargine): 2.8 area %

B6: trypsin variant SEQ ID NO: 18 (protein)
chain: B1 chain with F24R, K125S, W193S
Activity PPI cleavage (pre-pro-human insulin): yes | Selectivity (pre-pro-human insulin): >90% | Purity Insulin Glargine (pre-pro-insulin glargine): 82.6 area % | Yield (pre-pro-insulin glargine): > 80% | desArg (pre-pro-insulin glargine): < 0.5 area % | desThr (pre-pro-insulin glargine): 1.9 area %

B7: trypsin variant SEQ ID NO: 118 (protein)
chain: B1 chain with F24R, S44P, D56H, R99H, R107T, K125A, Y131M, K170A, W193S
Activity PPI cleavage (pre-pro-human insulin): yes | Selectivity (pre-pro-human insulin): >90% | Purity Insulin Glargine (pre-pro-insulin glargine): 87.6 area % | Yield (pre-pro-insulin glargine): > 90% | desArg (pre-pro-insulin glargine): 0.6 area % | desThr (pre-pro-insulin glargine): 1 area %

B8: trypsin variant SEQ ID NO: 19 (protein)
chain: B1 chain with F24R, K125C, W193S
Activity PPI cleavage (pre-pro-human insulin): yes | Selectivity (pre-pro-human insulin): >90% | Purity Insulin Glargine (pre-pro-insulin glargine): 81 area % | Yield (pre-pro-insulin glargine): > 80% | desArg (pre-pro-insulin glargine): < 0.5 area % | desThr (pre-pro-insulin glargine): 3.3 area %

B9: trypsin variant SEQ ID NO: 117 (protein)
chain: B1 chain with F24R, S44P, D56H, R99N, R107T, K125A, Y131M, W193S
Activity PPI cleavage (pre-pro-human insulin): yes | Selectivity (pre-pro-human insulin): >90% | Purity Insulin Glargine (pre-pro-insulin glargine): 85 area % | Yield (pre-pro-insulin glargine): > 90% | desArg (pre-pro-insulin glargine): 0.6 area % | desThr (pre-pro-insulin glargine): 0.8 area %

B10: trypsin variant SEQ ID NO: 25 (protein)
chain: B1 chain with F24R, K170A, W193S
Activity PPI cleavage (pre-pro-human insulin): yes | Selectivity (pre-pro-human insulin): >90% | Purity Insulin Glargine (pre-pro-insulin glargine): 80.4 area % | Yield (pre-pro-insulin glargine): > 80% | desArg (pre-pro-insulin glargine): < 0.5 area % | desThr (pre-pro-insulin glargine): 2.8 area %

B11: trypsin variant SEQ ID NO: 119 (protein)
chain: B1 chain with F24R, S44P, D56H, R99A, R107T, K125A, Y131M, W193S
Activity PPI cleavage (pre-pro-human insulin): yes | Selectivity (pre-pro-human insulin): >90% | Purity Insulin Glargine (pre-pro-insulin glargine): 85.2 area % | Yield (pre-pro-insulin glargine): > 90% | desArg (pre-pro-insulin glargine): 0.6 area % | desThr (pre-pro-insulin glargine): 1 area %

B12: trypsin variant SEQ ID NO: 14 (protein)
chain: B1 chain with F24R, R99H, W193S
Activity PPI cleavage (pre-pro-human insulin): yes | Selectivity (pre-pro-human insulin): >90% | Purity Insulin Glargine (pre-pro-insulin glargine): 84.5 area % | Yield (pre-pro-insulin glargine): > 90% | desArg (pre-pro-insulin glargine): < 0.5 area % | desThr (pre-pro-insulin glargine): 2.4 area %

B13: trypsin variant SEQ ID NO: 36 (protein)
chain: B1 chain with F24R, Y131M, W193S
Activity PPI cleavage (pre-pro-human insulin): yes | Selectivity (pre-pro-human insulin): >90% | Purity Insulin Glargine (pre-pro-insulin glargine): 87.6 area % | Yield (pre-pro-insulin glargine): > 90% | desArg (pre-pro-insulin glargine): < 0.5 area % | desThr (pre-pro-insulin glargine): 1.5 area %

B14: trypsin variant SEQ ID NO: 41 (protein)
chain: B1 chain with F24R, Y131H, W193S
Activity PPI cleavage (pre-pro-human insulin): yes | Selectivity (pre-pro-human insulin): >90% | Purity Insulin Glargine (pre-pro-insulin glargine): 82.8 area % | Yield (pre-pro-insulin glargine): > 90% | desArg (pre-pro-insulin glargine): < 0.5 area % | desThr (pre-pro-insulin glargine): 1.9 area %
